Tests used:
Experiment in all cases: flow cytometry on cells; PBMCs of SLA class I haplotype-defined Microminipigs stained with X2F6 followed by anti-mouse IgG-FITC; lymphoid gate; also after TSST-1 or IFN-γ stimulation
[1] = molecular target: classical class I SLA on PBMCs of Hp-10.0 homozygous Microminipigs
[2] = molecular target: classical class I SLA on PBMCs of Hp-35.0 homozygous Microminipigs
[3] = molecular target: classical class I SLA on PBMCs of Hp-17.0 homozygous Microminipigs

B1: X2F6 monoclonal antibody (antibody, V domains shown)
VH: QVQLQQSGAELVKPGASVKLSCKASGYTFTSYDINWVRQRPEQGLEWIGWIYPGDGSTKYNEKFKGKATLTTDKSSSTAYMQLSRLTSEDSAVYFCASPYYYGSSPFAYWGQGTLVTVSA
VL: DIQMTQSPASLSASVGETVTITCRASENIYSYLAWYQQKQGKSPQLLVYNAKTLAEGVPSRFSGSGSGTQFSLKINSLQPEDFGSYYCQHHYGTPRTFGGGTKLEIK
[1]
  MFI: 1900
[2]
  MFI: 767
[3]
  MFI: 122

Reference: publication PMC5070868
